Assay results taken from US20220064291A1, “METHODS OF USING BUTYROPHILIN ANTIBODIES FOR TREATING HIV INFECTION” (Merck Sharp & Dohme Corp., priority 2018, published 2022).

What was measured:
BTN3A1 = molecular target: T1, BTN3A1 (Homo sapiens, UniProt O00481); assay: BTN isoform binding of yeast display antibodies (Octet isoform binding profile, binding affinity); conditions: Table 4; Yes/No; hIgG1-297A isotype
T1 construct: Fc (Fc-chimera); purchased R&D systems; host or cells: HEK293
Method: (§1) De novo antibody discovery for butyrophilin isoforms was executed on pre-immune yeast display libraries. The soluble proteins used in the yeast display selections were biotinylated recombinant proteins of HEK293-expressed Fc-chimeras BTN2A2, BTN3A1, BTN3A2, and BTN3A3 from R&D systems. All proteins were analyzed before use by Biacore binding against control antibody anti-BTN Monoclonal Antibody (eBioBT3.1 (20.1, BT3.1), SEC, SDS-PAGE, and endotoxin.
(§2) Each biotinylated BTN isoform was subjected to pre-immune yeast display libraries for selections. The selections started with MACS (Magnetic Bead-based Cell Separation) cell separations for the first two rounds to enrich clones that bind to the targeted BTN isoforms, and applied fluorescence activated cell sorting (FACS) at later rounds to isolate clones that were with high affinity and isoform specificity. Due to the high sequence homology among all BTN isoforms, isoform-specific selection pressures were achieved by introducing ten-fold molar ratio of the non-biotinylated BTN isoforms to the biotinylated and selection-targeted BTN isoforms in the later rounds of the selections.
(§3) The isolated clones were then sequenced to identify the unique antibodies and screened for isoform binding profiles by Octet. To ensure the isolated antibodies have broad-epitopic coverage, all the antibodies were subjected to binning against the benchmark antibodies: BTN20.1 (Biolegend, agonist) and BTN103.2 (Creative Biolabs, antagonist). Purified antibodies were submitted for functional assay screening, as described below.
(§4) Given the sequence homology between BTN3A isoforms (>90%), this outcome is expected. Within all 105 antibodies from the BTN3A1 campaign and 125 antibodies from the BTN3A2 campaign, each antibody was characterized into one of the bins: Biolegend-bin, Creative-Biolabs-bin, Empty Set, or Overlapping.
(§5) Using the protocols described in detail in Example 2B and Example 3A, anti-BTN3A antibodies were screened for a functional role in T cell activation and reactivation of latent HIV. Antibody screens were conducted using HIV latent CD4+ T cells (prepared as described in Example 1A). T cell activation was quantified by production of IFNγ, and reactivation of latent HIV was quantified by luciferase assay. […] Detailed information on binding profile with binding affinity (KD) (Table 4) and antibody isotype and sequence (Table 5) are provided for two representative antibodies from each of the three functional categories observed.

BTN3A2 = molecular target: T2, BTN3A2 (Homo sapiens, UniProt P78410); assay: as above; conditions: Table 4; Yes/No; hIgG1-297A isotype
T2 construct: Fc (Fc-chimera); purchased R&D systems; host or cells: HEK293
T2 sequence (P78410 with tags, fused parts or gaps limits assumed): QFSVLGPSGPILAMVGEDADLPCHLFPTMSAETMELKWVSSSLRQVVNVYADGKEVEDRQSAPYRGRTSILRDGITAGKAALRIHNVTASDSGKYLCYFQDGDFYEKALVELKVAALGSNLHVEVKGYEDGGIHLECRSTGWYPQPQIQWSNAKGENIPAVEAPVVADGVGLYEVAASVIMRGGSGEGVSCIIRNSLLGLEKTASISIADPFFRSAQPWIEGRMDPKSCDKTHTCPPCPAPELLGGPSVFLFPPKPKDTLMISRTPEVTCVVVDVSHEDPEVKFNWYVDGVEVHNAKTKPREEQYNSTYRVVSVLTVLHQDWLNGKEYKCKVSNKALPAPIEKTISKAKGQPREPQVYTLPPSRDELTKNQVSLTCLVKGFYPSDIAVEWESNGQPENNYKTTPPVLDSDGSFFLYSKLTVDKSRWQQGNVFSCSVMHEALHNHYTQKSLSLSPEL
Method: as §1, §2, §3, §4, §5

BTN3A3 = molecular target: T3, BTN3A3 (Homo sapiens, UniProt O00478); assay: as above; conditions: Table 4; Yes/No; hIgG1-297A isotype
T3 construct: Fc (Fc-chimera); purchased R&D systems; host or cells: HEK293
T3 sequence (O00478 with tags, fused parts or gaps limits assumed): as the sequence (P78410 with tags, fused parts or gaps limits assumed) above, with K37R, N120D, V123I, Q149K, N152D, A153T, E174A, G184S, E187G counted along it
Method: as §1, §2, §3, §4, §5

[1] = system: HIV latent primary CD4+ T cells; assay: T cell activation by plate-coated anti-BTN3A antibody plus anti-CD3, IFNγ expression (V-PLEX); format: cell-based, human; conditions: production of IFNγ, with anti-CD3, Yes/No
Method: (§6) Latent HIV-1 infected primary CD4+ T cells were generated following a protocol licensed from the laboratory of Jonathan Karn (Case Western Reserve University, Cleveland, Ohio). Briefly, naive CD4^+ T cells isolated from 2 healthy human donors were propagated for 6 days in growth medium supplemented with Dynabeads Human T-Activator CD3/CD28 (25 μl/10^6 cells) and Th17 polarizing cytokines: TGF-β1 (5 ng/ml), IL-4 (10 ng/ml), IFNγ (10 ng/ml), IL-1β (10 ng/ml), IL-6 (30 ng/ml), IL-23 (50 ng/ml), IL-8 (15 ng/ml), IL-10 (10 ng/ml). […]. Reactivation of HIV-1 proviruses from latently infected cells was performed by treatment with Dynabeads Human T-Activator CD3/CD28 (25 μl/10^6 cells) or PMA/Ionomycin.
We next addressed if treatment with anti-BTN3A antibodies reverses BTN3A-mediated blockade in T cell activation. To assess this, sterile 96-well flat bottom tissue culture plates (Corning) were coated with various concentrations of anti-CD3 and anti-BTN3 20.1 antibodies (10 μg/ml, 3 μg/ml, 1 μg/ml, and 0.3 μg/ml) in PBS for 16 h in a 4° C. refrigerator. As controls, plates were coated with various concentrations of anti-CD3 antibody and isotype control antibody (10 μg/ml, 3 μg/ml, 1 μg/ml, and 0.3 μg/ml), anti-CD3 antibody alone, or isotype control antibody alone. The next day, antibodies were aspirated using a multichannel pipette and HIV latent primary CD4+ T cells from two donors were added to the antibody coated plates in duplicates at 125,000 cells/well in 200 ul of primary cell media (RPMI with 10% FBS, 50 μg/ml Primocin™). At 72 h following treatment T cell activation was measured based on IFNγ expression using a V-PLEX proinflammatory panel 1 human assay (Meso Scale Discovery, Rockville, Md.) (FIG. 4).
as §5

[2] = system: latent HIV in HIV latent primary CD4+ T cells; assay: Latent virus reactivation by plate-coated anti-BTN3A antibody plus anti-CD3, Nano-Glo Luciferase Assay; format: cell-based, HIV-1; conditions: with anti-CD3, Yes/No
Method: as §6
To assess if BTN3A modulation has impact on HIV latency reversal, sterile 96-well flat bottom tissue culture plates (Corning) were coated with various concentrations of anti-CD3 and anti-BTN3 20.1 antibodies (10 μg/ml, 3 μg/ml, 1 μg/ml, and 0.3 μg/ml) in PBS for 16h in a 4° C. refrigerator. As controls, plates were coated with various concentrations of anti-CD3 antibody and isotype control antibody (10 μg/ml, 3 μg/ml, 1 μg/ml, and 0.3 μg/ml), anti-CD3 antibody alone, or isotype control antibody alone. The next day, antibodies were aspirated using a multichannel pipette and HIV latent primary CD4+ T cells from two donors were added to the antibody coated plates in duplicates at 125,000 cells/well in 200 ul of primary cell media (RPMI with 10% FBS, 50 μg/ml Primocin™). At 24 h post treatment latent virus reactivation was measured using a Nano-Glo® Luciferase Assay (Promega) (FIG. 5).
as §5

T1 sequence (O00481 with tags, fused parts or gaps limits assumed): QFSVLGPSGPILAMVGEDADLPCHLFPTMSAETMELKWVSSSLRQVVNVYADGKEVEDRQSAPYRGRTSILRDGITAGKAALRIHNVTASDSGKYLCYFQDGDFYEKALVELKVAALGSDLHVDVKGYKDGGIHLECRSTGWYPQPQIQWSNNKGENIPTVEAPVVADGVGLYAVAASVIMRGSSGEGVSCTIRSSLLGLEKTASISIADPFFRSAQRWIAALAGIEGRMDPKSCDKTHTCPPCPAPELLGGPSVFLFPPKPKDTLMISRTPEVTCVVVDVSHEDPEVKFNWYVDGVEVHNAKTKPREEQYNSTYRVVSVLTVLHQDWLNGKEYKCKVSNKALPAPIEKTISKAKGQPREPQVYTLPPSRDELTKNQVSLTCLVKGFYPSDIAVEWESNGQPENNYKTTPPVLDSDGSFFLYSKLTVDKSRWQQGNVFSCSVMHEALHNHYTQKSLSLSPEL

Row | Molecule | BTN3A1 Binding (BTN3A1) | BTN3A2 Binding (BTN3A2) | BTN3A3 Binding (BTN3A3) | Antibody function T cell activation [1] | Antibody function HIV reactivation [2]
1 | 1G (antibody, V domains shown) VH: QVQLVQSGAEVKKPGASVKVSCKASGYTFTSYGISWVRQAPGQGLEWMGWISAYNGNTNYAQKLQGRVTMTTDTSTSTAYMELRSLRSDDTAVYYCARLGATVAYFDLWGRGTLVTVSS VL: EIVLTQSPATLSVSPGERATLSCRASQSVSSNLAWYQQKPGQAPRLLIYGASTRATGIPARFSGSGSGTEFTLTISSLQSEDFAVYYCQQDVYWPFTFGGGTKVEIK | Yes | Yes | Yes | Yes | No
2 | 2A (antibody, V domains shown) VH: QVQLVQSGAEVKKPGASVKVSCKASGYTFTSYYIHWVRQAPGQGLEWMGIINPSGGSTSYAQKFQGRVTMTRDTSTSTVYMELSSLRSEDTAVYYCARATWEALHYWGQGTLVTVSS VL: EIVMTQSPATLSVSPGERATLSCRASQSVGSNLAWYQQKPGQAPRLLIYGASTRATGIPARFSGSGSGTEFTLTISSLQSEDFAVYYCQQYYAWPRTFGGGTKVEIK | Yes | No | Yes | No | Yes
3 | 3B (antibody, V domains shown) VH: QVQLVQSGAEVKKPGASVKVSCKASGYTFTSYYMHWVRQAPGQGLEWMGIINPSGGSTSYAQKFQGRVTMTRDTSTSTVYMELSSLRSEDTAVYYCARPSGDYSGYDALDVWGQGTMVTVSS VL: EIVLTQSPATLSLSPGERATLSCRASQSVSSYLAWYQQKPGQAPRLLIYDASNRATGIPARFSGSGSGTDFTLTISSLEPEDFAVYYCQQDPYWPITFGGGTKVEIK | Yes | Yes | Yes | Yes | Yes
4 | 3A (antibody, V domains shown) VH: QVQLVQSGAEVKKPGASVKVSCKASGYTFTSYYMHWVRQAPGQGLEWMGIINPGGGSTSYAQKFQGRVTMTRDTSTSTVYMELSSLRSEDTAVYYCARDAGHDYGDMAYWGQGTLVTVSS VL: DIQMTQSPSTLSASVGDRVTITCRASQSISSWLAWYQQKPGKAPKLLIYKASSLESGVPSRFSGSGSGTEFTLTISSLQPDDFATYYCQQYRSFPTFGGGTKVEIK | Yes | No | Yes | Yes | Yes
